The values below are quoted from earlier work in patent publication US20100233200A1, “VECTOR ENCODING THERAPEUTIC POLYPEPTIDE AND SAFETY ELEMENTS TO CLEAR […]” (priority 2007, published 2010).

The subject of this data set is human tmpk. Particulars: relative to wild-type tmpk; cited from earlier work.

B1: R200A mutant: modified human tmpk, SEQ ID NOS: 15 and 16 (protein)
chain: MAARRGALIVLEGVDRAGKSTQSRKLVEALCAAGHRAELLRFPERSTEIGKLLSSYLQKKSDVEDHSVHLLFSANRWEQVPLIKEKLSQGVTLVVDRYAFSGVAFTGAKENFSLDWCKQPDVGLPKPDLVLFLQLQLADAAKRGAFGHERYENGAFQERALRCFHQLMKDTTLNWKMVDASKSIEAVHEDIRVLSEDAIATATEKPLGELWK
As to B1, the “enzymatic activity (dTMP to dTDP or AZT-MP to AZT-DP)” value is listed as “superior enzymatic activity”.

B2: F105Y mutant: modified human tmpk, SEQ ID NO: 11, SEQ ID NO: 21 (protein, UniProt P23919 2-212, looked up, variant F105Y)
Thymidylate kinase: AARRGALIVLEGVDRAGKSTQSRKLVEALCAAGHRAELLRFPERSTEIGKLLSSYLQKKSDVEDHSVHLLFSANRWEQVPLIKEKLSQGVTLVVDRYAFSGVAYTGAKENFSLDWCKQPDVGLPKPDLVLFLQLQLADAAKRGAFGHERYENGAFQERALRCFHQLMKDTTLNWKMVDASKSIEAVHEDIRVLSEDAIRTATEKPLGELWK
As for B2, the “enzymatic activity (dTMP to dTDP or AZT-MP to AZT-DP)” value is recorded as “superior enzymatic activity”.
